Assay results: patent US20140206846A1 (published 2014)

What was measured:
human IL6 = target: T1, human IL6 (human, UniProt P05231 30-212); assay: Biacore SPR, Fab captured by anti-light chain antibody, IL6 as analyte
T1 construct: Bought recombinant protein
Description: Antibody libraries were selected against human VEGF (Peprotech catalogue number 100-20) and human IL6 (Peprotech catalogue number 200-06). Of the isolated parental antibody clones, IL6P and VEGFP were combined into the bi-specific antibody clone VH6L. […] To assess the affinities of parental and bi-specific antibodies, Biacore™ analysis was performed in order to analyze the binding behaviour of IL6P, VH6L and VEGFP. For this, an anti-light chain capture antibody was immobilized onto a CM5 chip using amine-coupling, resulting in 12000 RU. Fab fragments were captured to a level of 400-500 RU and a concentration series of IL6 and VEGF, ranging from 0 to 450 nM, was passed over the chip. As depicted in FIG. 7, clone IL6P binds to IL6, but not to VEGF, clone VEGFP binds to VEGF, but not to IL6, and the combined clone VH6L binds to both IL6 and VEGF.

HEL = target: T2, HEL (UniProt P00698 19-147, biotinylated); assay: ELISA, biotinylated target (20 nM) on streptavidin plates, Fab in culture supernatant
T2 construct: Control target of the ELISA
Description: To test the specificity of antibodies selected from Lib1 and Lib2 libraries against one target and the specificity of bi-specific antibodies designed to bind both targets, Enzyme-linked immunosorbent assays (ELISAs) were performed using standard methods. Briefly, Nunc Maxisorp plates were prepared by coating with Streptavidin dissolved in 1×PBS, binding 20 nM of biotinylated targets (GST, MBP, HEL or VEGF) in PBS-T (0.3% Tween-20 dissolved in 1×PBS) and blocking with 5% skimmed milk powder in PBS-T. Thereafter, 50 μl of E. coli TG1 culture supernatant expressing antibody clones as soluble Fab fragments in microtiter plates were added, followed by detection of bound Fab fragments using goat anti-human kappa light chain polyclonal antibody (Sigma) or mouse anti-Strep tag antibody (IBA) specific for a Strep-Il tag fused to the C-terminus of the heavy chain in the soluble Fab expression construct. Secondary antibodies were detected using HRP-labeled tertiary antibodies, ELISAs were developed using TMB substrate (KPL), and signal was quantified using a Victor plate reader from PerkinElmer set to 450 nm. […] None of the clones bound the control targets HEL or VEGF (FIG. 5). Experiments were performed in duplicate using two independent colonies for each Fab.

T2 sequence (P00698 19-147): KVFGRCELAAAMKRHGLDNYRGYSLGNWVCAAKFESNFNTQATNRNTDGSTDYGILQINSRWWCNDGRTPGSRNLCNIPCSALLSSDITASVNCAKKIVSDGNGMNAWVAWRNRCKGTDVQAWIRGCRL

B1: IL6P (Fab, V domains shown)
VH: EVQLVESGGGLVQPGGSLRLSCAASGFTFSSYAMSWIRQAPGKGLEWIGQISGSGGSTVYNYNVLGRFTISRDNSKNTLYLQMNSLRAEDTAVYYCARDSGYFDIWGQGTLVTVSS
VL: NIQKTQSPSSLSASVGDRVTITCRALWHISSYLAWYQQKPGKAPKLLIYAASSLYSGVPSRFSGSGSGTDFTLTISSLQPEDFATYYCQQYSGLPYTFGQGTKVEIKR
Human IL6
  Kd: 38 nM

B2: VH6L (bispecific antibody, V domains shown)
VH: YYQLVESGGGLVQPGGSLRLSCAADGFLFSGYAMSWIRQAPGKGLEWIGQISGSGGSTVYNYNVLGRFTISRDNSKNTLYLQMNSLRAEDTAVYYCARDTGYFDHWGQGTLVTVSS
VL: NIQKTQSPSSLSASVGDRVTITCRALWHISSYLAWYQQKPGKAPKLLIYAASHLHYGVPSRFSGSGSGTDFTLTISSLQPEDFATYYCQQYSGLPYTFGQGTKVEIK
notes: Combination of IL6P and VEGFP; two paratopes in one VH-VL pair; tested as Fab fragment; also called bi-specific antibody clone VH6L; combined clone VH6L
Human IL6
  Kd: 40 nM

B3: Dummy 1 Fab (Fab, V domains shown)
VH: EVQLVESGGGLVQPGGSLRLSCAASGFTFSSYAMSWIRQAPGKGLEWIGQISGSGGSTYYNDNVLGRFTISRDNSKNTLYLQMNSLRAEDTAVYYCARDSGYFDIWGQGTLVTVSS
VL: DTQMTQSPSSLSASVGDRVTITCRASQSISSYLAWYQQKPGKAPKLLIYAASSLYSGVPSRFSGSGSGTDFTLTISSLQPEDFATYYCQQYSSLPYTFGQGTKVEIK
notes: Tested as soluble Fab in E. coli TG1 culture supernatant; Strep-II tag fused to the C-terminus of the heavy chain
HEL
  binding result: no binding
